The target of experiment [1] is S protein of authentic SARS-CoV-2 variant D614G, on virus (SARS-CoV-2) (UniProt P0DTC2). Description: cell-based or functional assay.
Experiment [2] deals with S protein of authentic (isogenic) SARS-CoV-2 variant B.1.351, on virus (SARS-CoV-2) (UniProt P0DTC2). Description: cell-based or functional assay.

On to IgG REGN10933 (antibody), for which the IC50, focus reduction neutralization test in experiment [1] is 10 ng/mL; in experiment [2] it was over 1000 ng/mL.
